Experimental data published in publication PMC7968997.

Assays:
RBM45 RRM1-2 WT [1] = target: T1, RBM45 RRM1-2 WT (Homo sapiens, UniProt Q8IUH3 23-202); assay: fluorescence polarization
T1 sequence: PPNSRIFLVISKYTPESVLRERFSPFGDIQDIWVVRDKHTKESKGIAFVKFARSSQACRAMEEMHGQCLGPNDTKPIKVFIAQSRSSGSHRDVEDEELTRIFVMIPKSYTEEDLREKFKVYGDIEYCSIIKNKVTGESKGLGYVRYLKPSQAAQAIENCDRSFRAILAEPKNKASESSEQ

[2] = target: T2, RBM45 RRM1-2 F29A/F70A (RRM2 analog) (Homo sapiens, UniProt Q8IUH3 23-202, F29A;F70A); assay: fluorescence polarization
T2 sequence: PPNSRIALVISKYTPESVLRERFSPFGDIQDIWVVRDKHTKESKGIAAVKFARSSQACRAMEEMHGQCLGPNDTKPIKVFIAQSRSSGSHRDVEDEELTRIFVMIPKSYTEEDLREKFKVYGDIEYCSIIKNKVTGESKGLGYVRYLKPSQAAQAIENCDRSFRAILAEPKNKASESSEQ

[3] = target: T3, RBM45 RRM1-2 F124A/Y165A (RRM1 analog) (Homo sapiens, UniProt Q8IUH3 23-202, F124A;Y165A); assay: fluorescence polarization
T3 sequence: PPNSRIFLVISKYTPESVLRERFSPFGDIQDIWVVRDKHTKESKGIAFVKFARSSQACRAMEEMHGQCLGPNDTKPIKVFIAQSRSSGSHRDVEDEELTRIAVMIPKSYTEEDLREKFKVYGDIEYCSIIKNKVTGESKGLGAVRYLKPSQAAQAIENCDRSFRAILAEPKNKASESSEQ

RBM45 RRM1-2 WT [4] = target: T1, RBM45 RRM1-2 WT; assay: fluorescence polarization; remark: listed apart in the source
[5] = target: T2, RBM45 RRM1-2 F29A/F70A (RRM2 analog); assay: fluorescence polarization; remark: listed apart in the source
[6] = target: T3, RBM45 RRM1-2 F124A/Y165A (RRM1 analog); assay: fluorescence polarization; remark: listed apart in the source
RBM45 RRM1-2 WT [7] = target: T1, RBM45 RRM1-2 WT; assay: crystal structure
RBM45 RRM1-2 WT [8] = target: T1, RBM45 RRM1-2 WT; assay: gel filtration
RBM45 RRM1-2 WT [9] = target: T1, RBM45 RRM1-2 WT; assay: gel filtration, SEC-MALS
RBM45 RRM1-2 WT [10] = target: T1, RBM45 RRM1-2 WT; assay: gel filtration, SEC-MALS; remark: listed apart in the source
RBM45 RRM1-2 WT [11] = target: T1, RBM45 RRM1-2 WT; assay: gel filtration, SEC-MALS; remark: listed apart in the source
RBM45 RRM1-2 WT [12] = target: T1, RBM45 RRM1-2 WT; assay: gel filtration, SEC-MALS; remark: listed apart in the source
RBM45 RRM1-2 WT [13] = target: T1, RBM45 RRM1-2 WT; assay: gel filtration, SEC-MALS; remark: listed apart in the source
RBM45 RRM1-2 WT [14] = target: T1, RBM45 RRM1-2 WT; assay: gel filtration, SEC-MALS; remark: listed apart in the source
RBM45 RRM1-2 WT [15] = target: T1, RBM45 RRM1-2 WT; assay: gel filtration, SEC-MALS; remark: listed apart in the source
RBM45 RRM1-2 WT [16] = target: T1, RBM45 RRM1-2 WT; assay: gel filtration, SEC-MALS; remark: listed apart in the source

UUUUUU (ssRNA) [polyU 6-mer RNA] gave a Kd (RBM45 RRM1-2 WT [1]) of 57.2 ± 10.2 µM.

Work on GGACGG (ssDNA) [GGACGG ssDNA] yielded a Kd (RBM45 RRM1-2 WT [1]) of 0.805 ± 0.108 µM, a Kd [2] of 2310 ± 190 nM and a Kd [3] of 1210 ± 90 nM.

GGACGG (ssRNA, m6A at position 3) [GG(m6A)CGG RNA]: binds (RBM45 RRM1-2 WT [4]); binds [5]; binds [6].

CGACGGGACGC (ssDNA) [11-nt ssDNA]: binds (RBM45 RRM1-2 WT [7]).

CGACGACGC (ssRNA) [9-mer 2-GAC RNA]: binds (RBM45 RRM1-2 WT [8]).

CGACGGACGC (ssRNA) [10-mer 2-GAC RNA]: binds (RBM45 RRM1-2 WT [8]).

CGACGGGACGC (ssRNA) [11-mer 2-GAC RNA]: binds (RBM45 RRM1-2 WT [9]).

CGACGGGGACGC (ssRNA) [12-mer 2-GAC RNA]: binds (RBM45 RRM1-2 WT [10]).

CGACGGUUUUUU (ssRNA) [12-mer GAC-polyU RNA]: binds (RBM45 RRM1-2 WT [11]).

CGACGGUUGGACGC (ssRNA) [14-mer 2-GAC RNA]: binds (RBM45 RRM1-2 WT [12]).

CGACGGUUUUGGACGC (ssRNA) [16-mer 2-GAC RNA]: binds (RBM45 RRM1-2 WT [12]).

CGACGGUUUUUUGGACGC (ssRNA) [18-mer 2-GAC RNA]: binds (RBM45 RRM1-2 WT [13]).

CGACGGUUUUUUUUGGACGC (ssRNA) [20-mer 2-GAC RNA]: binds (RBM45 RRM1-2 WT [14]).

CGACGGUUUUUUUUUUGGACGC (ssRNA) [22-mer 2-GAC RNA]: binds (RBM45 RRM1-2 WT [15]).

CGACGGUUUUUUUUUUUUUUGGACGC (ssRNA) [26-mer 2-GAC RNA]: binds (RBM45 RRM1-2 WT [16]).
